From patent EP4796562A1 (Shanghai Simnova Biotechnology Co., Ltd., dated 2026) come the findings set out here.

The target of the experiment is T1, DLL3 endogenously expressed on SHP77 cells (human, UniProt Q9NYJ7 27-618).
T1 construct: whole, on cells; also called human DLL3 on SHP-77
T1 sequence (looked up): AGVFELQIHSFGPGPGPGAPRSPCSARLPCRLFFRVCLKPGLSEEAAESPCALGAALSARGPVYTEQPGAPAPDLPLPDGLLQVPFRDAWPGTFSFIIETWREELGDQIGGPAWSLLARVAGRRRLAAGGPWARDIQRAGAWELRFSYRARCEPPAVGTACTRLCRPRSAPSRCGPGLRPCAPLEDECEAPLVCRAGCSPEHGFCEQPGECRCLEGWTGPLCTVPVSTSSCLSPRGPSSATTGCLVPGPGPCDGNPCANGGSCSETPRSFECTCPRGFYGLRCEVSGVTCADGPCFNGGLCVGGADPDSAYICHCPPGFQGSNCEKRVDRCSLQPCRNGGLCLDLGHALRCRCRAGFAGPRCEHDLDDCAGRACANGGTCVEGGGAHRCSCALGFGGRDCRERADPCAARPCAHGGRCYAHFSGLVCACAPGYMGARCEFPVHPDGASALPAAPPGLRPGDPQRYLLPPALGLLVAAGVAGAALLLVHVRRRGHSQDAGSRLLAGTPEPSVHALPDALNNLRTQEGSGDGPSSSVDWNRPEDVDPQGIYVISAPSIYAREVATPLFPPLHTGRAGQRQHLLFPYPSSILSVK
The experiment is described as follows: flow cytometry (FACS) on SHP77 cells. For orientation: A flow cytometer gives signals particle by particle.

B1: DLL3-scFv-3 (scFv)
scFv: DIVLTQSPASLAVSLGQRATISCRASKSVSTSGFSYMHWYQQKPGQPPKLLIYLASNLESGVPARFSGSGSGTDFTLNIHPVEEEDAATYYCQHSRELPFTFGSGTKLEIKGGGGSGGGGSGGGGSQVQLQQSGAELVKPGASVRISCKASGYAFSNYWINWVKQRPGKGLEWIGQINPGDGDTIYNGKFKGKATLTADKSSSTAYMQLSSLTSEDSAVYFCEREGRNYGDFAYWGQGTTLTVSS
notes: Murine anti-DLL3 clone; also called DLL3 chimeric antibody DLL3-scFv-3
As for B1, the binding result is “binds”.

B2: DLL3-scFv-1 (scFv)
scFv: DIVMTQSQKFMSTSVGDRVSITCKASQNVGTAVAWYQQKPGQSPKLLIFSASIRYTGVPDRFTGSGSGTDFTLTISNMQSEDLADYFCQQYSSSPYTFGGGTKLEIKGGGGSGGGGSGGGGSEVQLQQSGPVLVKPGASVKMSCKASGYTFTDYYMNWVKRSHGKSLEWIGIINPYNGGTSYNQKFRGKATLTVDKSSNTAYMELNSLTSEDSAVYYCSRYDYDYDVEGAMDYWGQGTSVTVSS
notes: Murine anti-DLL3 clone; also called DLL3 chimeric antibody DLL3-scFv-1
As for B2, the binding result is given as “binds”.

B3: DLL3-scFv-2 (scFv)
scFv: DIVMTQSPATLSVTPGDRVSLSCRASQTISDYLHWYQQRSHESPRLLIKYASQSISGIPSRFSGSGSGSDFTLSINSVEPEDVGVYYCQNGHSFPLTFGAGTKLELKGGGGSGGGGSGGGGSEVQLQQSGTVLARPGASVKMSCKTSGYTFTSYWMHWVKQSPGQGLEWIGTIYPGNSDTRYNQKFKDKAYVTAVTSASTAYMELSSLTNEESAVYYCTRSYDYGDLDYWGQGTTLTVSS
notes: Murine anti-DLL3 clone; also called DLL3 chimeric antibody DLL3-scFv-2
B3: the binding result is “binds”.
